The experiment addresses T1, recombinant human CEACAM5 (Homo sapiens, UniProt P06731).
T1 sequence (P06731 35-676): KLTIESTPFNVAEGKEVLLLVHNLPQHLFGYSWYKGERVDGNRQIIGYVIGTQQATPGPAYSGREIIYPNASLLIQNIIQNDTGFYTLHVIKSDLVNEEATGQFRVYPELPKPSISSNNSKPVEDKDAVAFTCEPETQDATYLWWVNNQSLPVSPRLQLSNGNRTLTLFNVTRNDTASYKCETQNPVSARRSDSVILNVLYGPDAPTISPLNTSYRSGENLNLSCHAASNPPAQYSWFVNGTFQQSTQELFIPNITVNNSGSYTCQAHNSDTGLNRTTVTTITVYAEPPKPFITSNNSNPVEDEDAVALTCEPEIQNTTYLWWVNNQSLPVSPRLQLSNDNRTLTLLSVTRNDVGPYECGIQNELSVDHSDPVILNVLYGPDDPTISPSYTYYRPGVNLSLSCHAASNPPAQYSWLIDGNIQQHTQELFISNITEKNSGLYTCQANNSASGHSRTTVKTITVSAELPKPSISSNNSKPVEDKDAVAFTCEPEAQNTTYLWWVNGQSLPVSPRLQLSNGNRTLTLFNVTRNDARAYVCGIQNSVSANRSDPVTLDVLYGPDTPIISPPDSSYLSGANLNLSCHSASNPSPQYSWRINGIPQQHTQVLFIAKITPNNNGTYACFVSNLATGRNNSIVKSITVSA
The experiment is described as follows: ELISA binding to recombinant human CEACAM5. The following applies: read-out: affinity (ELISA). An excerpt: “Affinity” is defined, in theory, by the equilibrium association between the whole antibody and the antigen. It can be experimentally assessed by a variety of known methods, such as measuring association and dissociation rates with surface plasmon resonance or measuring the EC50 (or apparent KD) in an immunochemical assay (ELISA, FACS). In these assays, the EC50 is the concentration of the antibody which induces a response halfway between the baseline and maximum after some specified exposure time on a defined concentration of antigen by ELISA (enzyme-linked immuno-sorbent assay) or cell expressing the antigen by FACS (Fluorescence Activated Cell Sorting).
Affinity for human CEACAM5 or for Macaca fascicularis CEACAM5 may be determined as the EC50 value in an ELISA using soluble recombinant CEACAM5 as capture antigen.
On the technique in general: In an ELISA, binding on a coated surface is turned into a signal by an enzyme label.

B1: naked antibody: humanized anti-CEACAM5 antibody (tusamitamab), CAS Registry No. 2349294-95-5; VH SEQ ID NO: 6, VL SEQ ID NO: 7 (antibody, V domains shown)
VH: EVQLQESGPGLVKPGGSLSLSCAASGFVFSSYDMSWVRQTPERGLEWVAYISSGGGITYAPSTVKGRFTVSRDNAKNTLYLQMNSLTSEDTAVYYCAAHYFGSSGPFAYVVGQGTLVTVSS
VL: DIQMTQSPASLSASVGDRVTITCRASENIFSYLAWYQQKPGKSPKLLVYNTRTLAEGVPSRFSGSGSGTDFSLTISSLQPEDFATYYCQHHYGTPFTFGSGTKLEI
Turning to B1, the EC50 was roughly 0.02 nM.

Source of the values: patent US20250154250A1, “CEACAM5 ADC-ANTI-PD1/PD-L1 COMBINATION THERAPY” (SANOFI, priority 2021, published 2025).
